Key:
[1] = target: T1, GFP-GEF-H1 (human, UniProt Q92974 93-986); assay: biotinylated peptide on streptavidin beads, pull-down from 293T lysate, GEF-H1 immunoblot
T1 construct: The legend says GFP-GEF-H1, the text GEF-H1S; also called GEF-H1S; EGFP-GEF-H1S; not shown: EGFP from vector pEGFP-C1 (Clontech)
T1 sequence: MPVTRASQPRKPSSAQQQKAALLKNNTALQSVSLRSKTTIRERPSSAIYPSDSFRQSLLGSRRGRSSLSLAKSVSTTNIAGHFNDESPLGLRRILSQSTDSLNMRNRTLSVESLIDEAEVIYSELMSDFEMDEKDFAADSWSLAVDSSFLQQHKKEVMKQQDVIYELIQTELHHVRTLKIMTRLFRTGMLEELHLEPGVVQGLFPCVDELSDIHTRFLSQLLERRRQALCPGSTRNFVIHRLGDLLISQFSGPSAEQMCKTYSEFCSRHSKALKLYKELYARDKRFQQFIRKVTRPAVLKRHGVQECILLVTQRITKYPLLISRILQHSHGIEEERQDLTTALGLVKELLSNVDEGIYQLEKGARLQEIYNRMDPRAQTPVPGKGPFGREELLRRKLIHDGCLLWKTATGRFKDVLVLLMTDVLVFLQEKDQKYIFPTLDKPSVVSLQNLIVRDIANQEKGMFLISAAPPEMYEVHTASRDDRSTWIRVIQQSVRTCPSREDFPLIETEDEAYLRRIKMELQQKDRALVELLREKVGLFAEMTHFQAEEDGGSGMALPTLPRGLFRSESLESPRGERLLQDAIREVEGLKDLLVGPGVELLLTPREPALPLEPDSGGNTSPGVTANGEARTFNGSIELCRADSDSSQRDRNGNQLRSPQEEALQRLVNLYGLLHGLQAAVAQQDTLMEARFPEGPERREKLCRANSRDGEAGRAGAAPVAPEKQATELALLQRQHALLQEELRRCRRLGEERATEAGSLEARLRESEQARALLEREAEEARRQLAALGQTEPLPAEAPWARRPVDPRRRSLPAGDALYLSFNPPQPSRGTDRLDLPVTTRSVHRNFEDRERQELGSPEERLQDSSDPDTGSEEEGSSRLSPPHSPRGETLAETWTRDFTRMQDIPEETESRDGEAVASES
Experimental: FIG. 1: Direct binding of GEF-H1 to PAK4. […] An equivalent amount of beads and excess lysates (500 ug) were used. Eluates of beads and total lysates were analysed by SDS-PAGE and immunoblotted with myc or GEF-H1 antiserum; (c) represents a PAK4 gene schematic outlining the regions of PAK4 used to identify the GEF-H1 interaction domain (GID). d, alignment of the GID defined by the minimal binding region of PAK4 with PAK5 and PAK6.
Biotinylated peptides derived from the N-terminal region of PAK4 sequence were used to further map the GEF-H1 binding site. […] Based on the homology within the GID of PAK4 it is possible that PAK5 and PAK6 also interact with GEF-H1 or related proteins.

[2] = target: T2, Glutathione-s-transferase (GST) fused PAK4 (residues 291-591) (human, UniProt O96013 291-591); assay: phage display screen, GST-PAK4 (291-591) on glutathione beads, MCF7 cDNA library
T2 construct: Bait of the phage display screen; the paragraphs that tell the kinase results say only PAK4; also called PAK4 kinase; not shown: glutathione-S-transferase (GST), protein product of the SJ26 gene, fusion partner from pGEX-4T
Excerpt: The phage display hits isolated in the screen corresponded to in-frame fusions derived from several distinct genes. One fragment was derived from the Maguin-2-like gene. Two other hits were derived from the GEF-H1S splice variant of GEF-H1.
This expression vector allowed production and expression of a gene appropriately inserted, as a fusion protein where the fusion partner is the protein product of the SJ26 gene glutathione-s-transferase (GST). The fusion partner GST allows for affinity immobilization on glutathione sepharose 4B matrix (Amersham Biosciences Cat # 17-0756-01) also known as glutathione beads. The PAK4 polypeptide immobilized to these beads was incubated with a lysate containing phage particles expressing a library of peptides derived from MCF7 (breast carcinoma tissue culture cells available from ATCC, USA) cDNA. See, Zozulya et al., Nat. Biotechnol., 17(12): p. 1193-8, 1999. Upon sequencing many of the candidates obtained in this screen, the GEF-H1S polypeptide was discovered in the clone designated 13-8. Sequencing was performed on a ABI prizm machine using standard methods provided by the manufacturer (Applied Biosystems, USA).

[3] = target: T3, amino-terminal regulatory domain of PAK4 alone (amino acids 1-309) (human, UniProt O96013 1-309); assay: GST pull-down on glutathione beads from 293T lysate, myc immunoblot
T3 construct: Over-expressed in 293T cells, used as cell lysate
T3 sequence (looked up): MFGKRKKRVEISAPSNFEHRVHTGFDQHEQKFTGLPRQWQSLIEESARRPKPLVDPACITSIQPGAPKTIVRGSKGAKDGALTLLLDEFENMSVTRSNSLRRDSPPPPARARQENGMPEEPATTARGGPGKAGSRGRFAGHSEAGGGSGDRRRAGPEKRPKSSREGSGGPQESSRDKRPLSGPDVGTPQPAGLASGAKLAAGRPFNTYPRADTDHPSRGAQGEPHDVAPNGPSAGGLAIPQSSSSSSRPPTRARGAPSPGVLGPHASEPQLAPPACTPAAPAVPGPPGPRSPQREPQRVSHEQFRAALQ
Experimental: An equivalent amount of beads and excess lysates (500 ug) were used. Eluates of beads and total lysates were analysed by SDS-PAGE and immunoblotted with myc or GEF-H1 antiserum; (c) represents a PAK4 gene schematic outlining the regions of PAK4 used to identify the GEF-H1 interaction domain (GID). d, alignment of the GID defined by the minimal binding region of PAK4 with PAK5 and PAK6.
These fusion proteins were bound to glutathione beads and utilized in binding assays with 293T lysates expressing exogenous PAK4.
The GST immobilized GEF-H1S polypeptide was used to conduct immunoprecipitation from the 293T cell extracts. The resulting protein complexes on the beads were identified by separating on SDS-PAGE followed by Western blotting to identify proteins that are present. The Western blot technique (Renart et al., Methods Enzymol., 104:455-60, 1984) is universally used to identify proteins using specific immunoreagents like antibodies. […] PAK4 was not present after immunoprecipitation with immobilized fusion partner GST. This interaction was limited by the presence or absence of GEF-H1S.

B1: biotinylated PAK4 peptide, amino acids 291-355 (peptide, UniProt O96013 291-355, looked up)
peptide: SPQREPQRVSHEQFRAALQLVVDPGDPRSYLDNFIKIGEGSTGIVCIATVRSSGKLVAVKKMDLR
modifications: biotinylated (position not given)
notes: Linked to streptavidin beads
B1: no binding [1].

B2: GEF-H1S polypeptide of phage display clone 13-8 (amino acids 763-921) (other)
chain: LRESEQARALLEREAEEARRQLAALGQTEPLPAEAPWARRPVDPRRRSLPAGDALYLSFNPPQPSRGTDRLDLPVTTRSVHRNFEDRERQELGSPEERLQDSSDPDTGSEEEGSSRLSPPHSPRGETLAETWTRDFTRMQDIPEETESRDGEAVASES
notes: Two hits came from GEF-H1S; only this one has stated limits; also called phage clone 13.8; GEF-H1 phage display hit; not shown: phage display fusion partner
B2: binds [2].

B3: GST-GEF-H1S (aa763-921) (other)
chain: LRESEQARALLEREAEEARRQLAALGQTEPLPAEAPWARRPVDPRRRSLPAGDALYLSFNPPQPSRGTDRLDLPVTTRSVHRNFEDRERQELGSPEERLQDSSDPDTGSEEEGSSRLSPPHSPRGETLAETWTRDFTRMQDIPEETESRDGEAVASES
notes: not shown: glutathione-S-transferase (GST), protein product of the SJ26 gene, fusion partner from pGEX-4T
B3: no binding [3].
